The test addresses Tag5-161P2F10B, purified recombinant extracellular domain (ECD) of 161P2F10B (amino acids 46-875) (human) (UniProt O14638). As to the kind of experiment: SPR, MAb captured on CM5 chip, recombinant 161P2F10B 1-100 nM injected. (In SPR one partner is held on a chip, and binding of the other changes the refractive index at the surface.)

As usually defined, the Kd is the constant that tells how readily two partners part at equilibrium. In general, koff refers to the rate constant with which the complex falls apart. In general, kon refers to the second-order rate constant of association.

B1: H16-1.92.1.1 (antibody, part only; not given: light chain, V domains shown, part only)
VH: EVLLVESGPGLVKPSETLSLTCTVSGGSISSSSYFWGWIRQPPGKGLEWIGSIYYSGNTYYNPSLKSRVTISVDTSKNRFSLKLSSVTAADTAVYCCASATTVTTAFDIWGQGTMVTVSSASTKGPSVFPLAPSS
For the molecule B1, the dissociation constant Kd was found to be 9.8 nM, the koff is 0.00036 s⁻¹ and the association rate constant (kon) worked out at 37000 M⁻¹ s⁻¹.

B2: H16-1.29.1.1 (antibody, part only; not given: light chain, V domains shown, part only)
VH: CRLVESGAEVKKPGASVKVSCKASGYTFTGYYMHWVRQAPGQGLEWMGWINPNSGGTNYAQKFQGRVTMTRDTSISTAYMELSRLRSDDTAVYYCARDQVDIVATRYYYYYYGMDVWGQGTTVTVSSASTKGPSVFPLAPSSKST
Take B2: the dissociation constant (Kd) came out at 26 nM, the koff turned out to be 0.00083 s⁻¹ and the on-rate (kon) was 32000 M⁻¹ s⁻¹.
